In one series the target is T1, PqsA (PqsAFL) (Pseudomonas aeruginosa, UniProt Q9I4X3).
T1 construct: full length, expressed in E. coli T7 Express with 6x-His-CPD tag, tag cut
Put plainly: anthraniloyl-CoA formation, absorbance at […] nm. As to conditions: assay with added ArqI. The series is classed as biochemical.

For series [1], the target named is T2, ArqI (PA0709), Aldehyde responsive quorum-sensing Inhibitor (Pseudomonas aeruginosa, UniProt Q9I5L9).
T2 construct: full length (98 residues), expressed in E. coli as His6-SUMO fusion, SUMO tag cut, N-terminal SGGG left; hexamer; numbering from Met1
Put plainly: X-ray crystallography and mass spectrometry of Arg49 adduct. Type of series: binding. Particulars: covalent; Arg49 in chains C, D, E; hemiaminal or carboxymethylarginine adduct (+58 amu).

The target of series [2] is T3, PqsA full-length protein, purified (Pseudomonas aeruginosa MPAO1, UniProt Q9I4X3 1-517).
T3 construct: also called PqsAFL; FL
T3 sequence: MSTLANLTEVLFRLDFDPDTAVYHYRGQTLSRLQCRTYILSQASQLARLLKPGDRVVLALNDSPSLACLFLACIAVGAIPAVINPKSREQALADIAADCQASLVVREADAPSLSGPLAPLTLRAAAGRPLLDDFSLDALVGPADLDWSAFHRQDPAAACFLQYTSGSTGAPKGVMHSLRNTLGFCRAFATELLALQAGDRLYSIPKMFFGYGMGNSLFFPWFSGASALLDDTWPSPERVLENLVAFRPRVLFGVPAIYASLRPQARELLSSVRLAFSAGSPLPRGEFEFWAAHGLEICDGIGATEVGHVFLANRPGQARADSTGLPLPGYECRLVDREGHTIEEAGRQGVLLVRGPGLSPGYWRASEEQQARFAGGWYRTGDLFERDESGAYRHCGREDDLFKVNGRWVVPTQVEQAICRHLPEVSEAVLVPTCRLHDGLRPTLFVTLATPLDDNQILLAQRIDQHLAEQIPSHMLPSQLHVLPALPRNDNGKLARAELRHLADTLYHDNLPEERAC
Put plainly: other fluorescence titration. As to conditions: both partners purified.

Series [3] concerns the molecule itself. Put plainly: crystal structure; native ArqI, crystals from 50 mM sodium acetate pH 5.0, 12% PEG 4000; C 222_1 cell, 6 subunits in the asymmetric unit, 2.0 Å.
The series “crystal structure” concerns the molecule itself. Put plainly: crystal structure.
Series [4] concerns the molecule itself. Put plainly: SEC; HiLoad Superdex 75 16/600 pg or Superose 6 Increase 10/300 GL; 2 mL at 10 mg/mL; 50 mM Tris-Cl pH 8.0, 150 mM NaCl, 1 mM βME (a buffer with 500 mM NaCl, pH 7.4, is also named); RT. On the technique in general: Size exclusion chromatography separates by hydrodynamic size, large species first.

Substitutions are numbered along the chain they refer to. Numbers in names are those of the source. Where “and” joins values, the source holds several entries; their conditions need not be identical. Equal entries are not always repeated.

Consider `CC(C)(COP(=O)(O)OP(=O)(O)OC[C@H]1O[C@@H](n2cnc3c(N)ncnc32)[C@H](O)[C@@H]1OP(=O)(O)O)[C@@H](O)C(=O)NCCC(=O)NCCS` [CoA, coenzyme A], for which, at PqsA (PqsAFL) (with anthranilate and ATP), the “anthraniloyl-CoA formation, absorbance at 375 nm” value was “purified PqsA protein with CoA, ATP, and anthranilate”.
For the molecule `O=CC=O` [GO, glyoxal], the “X-ray crystallography and mass spectrometry of Arg49 adduct” value in series [1] is “A glyoxal modification was observed on Arg49 for three subunits (chains C, D and E)”.
`Nc1ccccc1C(=O)O` [anthranilate]: the “anthraniloyl-CoA formation, absorbance at 375 nm” value at PqsA (PqsAFL) (with CoA and ATP) was “purified PqsA protein with CoA, ATP, and anthranilate”.

B1: Aldehyde responsive quorum-sensing Inhibitor (ArqI), wild type, purified (natural protein)
chain: SGGGMTYHVLVQFDVPSDKREAFAAAGLFDANGSLQNEPGTLRFEVIRDENNRNRFYLDEVYEDEAAFLQHCRNETIARFYELIDSYAFGPLFLFKGYRVEG
notes: also called PA0709; WT ArqI
In the case of B1, the Kd in series [2] worked out at 43 µM. The “stoichiometry N” value in series [3] is 6.

B2: ArqI R16A variant, purified (natural protein)
chain: B1 chain with R20A
modifications: in the crystal: βME-modified Cys68
notes: source: E. coli, purified as the wild type (Ni-NTA, ULP1 cleavage, SEC)
Take B2: the “stoichiometry N” value in the series “crystal structure” came out at 6; in series [4] it was 2.

B3: ArqI P87G variant, purified (natural protein)
chain: B1 chain with P91G
notes: source: E. coli, purified as the wild type
Consider B3, for which, in series [4], the “stoichiometry N” value is 2.

B4: ArqI R49Q variant, purified (natural protein)
chain: B1 chain with R53Q
notes: as for B3
Regarding B4, in series [4], the “stoichiometry N” value was 6 and 2.

What is called Kd is the constant that tells how readily two partners part at equilibrium. Broadly, the stoichiometry N is the number of molecules, sites or subunits per partner or assembly.
